Patent US5831007, “Human receptor for interleukin-12” (Hoffmann-La Roche Inc., dated 1998)

B1: Recombinant human IL-12 (Interleukin-12) (ligand)
chain 1: IWELKKDVYVVELDWYPDAPGEMVVLTCDTPEEDGITWTLDQSSEVLGSGKTLTIQVKEFGDAGQYTCHKGGEVLSHSLLLLHKKEDGIWSTDILKDQKEPKNKTFLRCEAKNYSGRFTCWWLTTISTDLTFSVKSSRGSSDPQGVTCGAATLSAERVRGDNKEYEYSVECQEDSACPAAEESLPIEVMVDAVHKLKYENYTSSFFIRDIIKPDPPKNLQLKPLKNSRQVEVSWEYPDTWSTPHSYFSLTFCVQVQGKSKREKKDRVFTDKTSATVICRKNASISVRAQDRYYSSSWSEWASVPCS
chain 2: RNLPVATPDPGMFPCLHHSQNLLRAVSNMLQKARQTLEFYPCTSEEIDHEDITKDKTSTVEACLPLELTKNESCLNSRETSFITNGSCLASRKTSFMMALCLSSIYEDLKMYQVEFKTMNAKLLMDPKRQIFLDQNMLAVIDELMQALNFNSETVPQKSSLEEPDFYKTKIKLCILLHAFRIRAVTIDRVMSYLNAS
B2: Recombinant murine IL-12 (ligand)
chain 1: MWELEKDVYVVEVDWTPDAPGETVNLTCDTPEEDDITWTSDQRHGVIGSGKTLTITVKEFLDAGQYTCHKGGETLSHSHLLLHKKENGIWSTEILKNFKNKTFLKCEAPNYSGRFTCSWLVQRNMDLKFNIKSSSSSPDSRAVTCGMASLSAEKVTLDQRDYEKYSVSCQEDVTCPTAEETLPIELALEARQQNKYENYSTSFFIRDIIKPDPPKNLQMKPLKNSQVEVSWEYPDSWSTPHSYFSLKFFVRIQRKKEKMKETEEGCNQKGAFLVEKTSTEVQCKGGNVCVQAQDRYYNSSCSKWACVPCRVRS
chain 2: RVIPVSGPARCLSQSRNLLKTTDDMVKTAREKLKHYSCTAEDIDHEDITRDQTSTLKTCLPLELHKNESCLATRETSSTTRGSCLPPQKTSLMMTLCLGSIYEDLKMYQTEFQAINAALQNHNHQQIILDKGMLVAIDELMQSLNHNGETLRQKPPVGEADPYRVKMKLCILLHAFSTRVVTINRVMGYLSSA

Experiments:
[1] = target: T1, Recombinant human low affinity IL-12 receptor protein (clone No. 5) expressed in COS cells (human); test: IL-12 binding to transfected COS cells; told in the discussion
[2] = target: T1, Recombinant human low affinity IL-12 …; test: IL-12 binding to intact transfected COS cells; told in the discussion
[3] = target: T1, Recombinant human low affinity IL-12 …; test: steady state binding of 125I-IL-12 to rIL-12R expressing COS cells, Scatchard (FIGS. 4A and 4B)
Protocol: The characteristics of the protein bound by mAb 2-4E6 fulfilled standard criterion for an IL-12R and therefore 2-4E6 was used in an expression cloning strategy to isolate a cDNA coding for the human IL-12R. A cDNA coding for the human IL-12R was isolated by this method (U. Gubler and A. O. Chua, unpublished observations). The IL-12R cDNA was engineered in a mammalian cell expression vector, transfected into COS-7 cells and the specificity for binding of ^125I-IL-12 and ^125I-2-4E6 was determined. […] This low affinity IL-12 binding site corresponds to the low affinity site seen in the binding assays with human cells that naturally express IL-12R. The binding of ^125I-2-4E6 to, rIL-12R expressed in the COS cells is saturable and specific and identifies approximately 500,000 sites/cell (FIGS. 4C and 4D).
For FIGS. 4A and 4B, COS cells were transfected with a plasmid expressing human rIL-12R as. described. Three days later, transfected cells (1×10^4 cells) were incubated for 2 hrs at room temperature with increasing concentration of ^125I-IL-12 in the absence (o) or presence (□) of 50 nM unlabeled IL-12. Total (o) and non-specific (□) cell bound radioactivity were determined as described. Specific binding of ^125I-IL-12 (▲) was calculated by subtracting non-specific binding from total binding.

[4] = target: Human IL-12 receptor subunit monomer (on murine CTLL transfectants, which only express monomers); monomer form … (human); test: IL-12 binding to murine CTLL transfectants stably expressing the IL-12 receptor subunit (monomers only)
[5] = target: T1, Recombinant human low affinity IL-12 …; test: equilibrium binding of labeled IL-12 to COS cells electroporated with clone number 5, Scatchard, single site (FIG. 19A)
Protocol: (§1) Binding assays with labeled IL-12 or labeled 2-4E6 antibody were run as described hereinabove under anti human IL-12 receptor antibody. The binding data were analyzed and Kd values were calculated according to Scatchard, using the LIGAND program discussed hereinabove under anti human IL-12 receptor antibody. In vivo labeling (6 hours) of COS cells (3 ×10^5 cells per 35 mm diameter tissue culture dish) with […] was performed 3 days after transfection as described (Molecular Cloning Manual). Cells were washed in PBS and lysed in CHAPS lysis buffer (10 mM CHAPS-300 mM Nacl-50 mM Tris-HCl pH 7.4-2 mg/ml lodoacetamide-0.17 mg/ml PMSF), precleared by incubation with protein G Sepharose beads (50 µl packed beads per ml, Genex) and normal mouse serum (25% final concentration) at 4° C. overnight. […]
(§2) IL-12 receptor cDNA (clone number 5) (SEQ ID NO:1) was electroporated into COS cells and equilibrium binding of labeled human and murine IL-12 to the cells was performed and analyzed as described (R. Chizzonite, et al., 1992, J. Immunol., 148:3117). […] After transformation by the method of Scatchard, the equilibrium binding data was best described by a single receptor site model as determined by the LIGAND program. The site numbers indicated in FIG. 19 are calculated assuming that all cells are expressing receptors. […]

[6] = target: T1, Recombinant human low affinity IL-12 …; test: equilibrium binding of labeled IL-12 to COS cells electroporated with clone number 5, Scatchard, single site (FIG. 19B)
Protocol: as §1, §2

Binder	Kd [1] [nM]	Kd [2] [nM]	Kd [3] [nM]	Kd [4] [nM]	Kd [5] [nM]	Kd [6] [nM]
B1	~3	2 to 5	2 to 6	≥ 50	3.4	
B2						2.1
